B1: TSN (parent)
chain: FLAAEQDIREEIRKVVQSLEQTAR

Variants of: B1
Assay: protein stability index of a GFP-peptide fusion (GPS, HEK-293T) (PSI 1-6); higher = more stable
Settings: c terminus: a fixed tail appended
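Note: lentivirally expressed fusions sorted by FACS into six bins by GFP to DsRed ratio, PSI derived from sequencing read proportions per bin multiplied by bin number.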

Protein stability index of substitutions, site by site:
T22: F 2.42, C 1.84, P 2.16, Y 1.81, R 2.99, S 1.98, H 1.67, K 1.95, E 2.48, M 2.57, I 2.61, N 2.36, D 2.5, W 2.32
I8: V 2.17, P 3.41, Y 2.42, H 3.17, C 2.56, T 2.78, F 2.57, A 3.02, N 4.12, K 2.56, S 3.33, W 2.65, G 4.12, E 3.64, M 1.73, L 2.02, Q 3.16, R 3.15, D 3.44
E20: H 2.55, L 2.13, P 3.47, K 2.29, F 2.73, A 3.05, Y 2.07, V 2.29, D 2.77, T 2.3, Q 2.35, N 2.08, S 2.57, W 2.64, C 2.57, M 2.33, R 2.44, G 2.28, I 2.05
L19: S 3.33, Q 3.39, I 2.41, P 3.9, K 3.44, W 3.12, D 3.6, N 3.8, A 3.72, G 3.51, C 4.16, H 2.96, M 2.33, T 3.76, Y 3.01, R 3.38, F 2.14, V 3.02, E 4.16
V15: T 2.61, I 2.19, Q 3.54, W 2.4, G 3.29, Y 3.44, D 3.62, N 3.76, L 2.48, H 2.8, M 2.17, R 3.31, S 3.07, A 3.48, E 4.34, C 2.56, K 3.37, P 3, F 2.96
E10: F 1.35, G 2.92, Q 1.85, S 2.33, H 2.5, T 2.83, L 1.96, R 2.06, W 2.08, D 1.63, Y 1.96, P 3.21, N 2.12, A 2.11, C 2.47, V 2.39, K 2.15, I 1.53, M 1.88
R24: W 1.69, E 2.13, Q 1.74, C 1.82, Y 1.94, F 2.07, V 1.7, G 2.18, P 2.28, K 1.7, A 2.26, N 2.21, M 2.68, L 2.49, D 2.4, T 2.08, S 2.16, I 3.12, H 1.47
R13: T 2.82, S 2.12, D 1.84, F 1.55, Y 2.73, A 1.94, H 2.7, L 1.83, E 1.89, C 1.94, V 1.66, G 1.94, I 1.43, N 2.16, W 2.18, Q 2.14, K 1.89, P 3.64, M 2.07
D7: Y 2.44
Q17: M 2.6, D 1.78, K 2.52, R 2.02, T 1.84, W 1.72, V 1.87, C 2.3, N 2.15, L 2.42, S 2.78, E 1.77, I 2.06, F 1.58, G 1.92, Y 1.6, P 3.32, H 1.98, A 2.47

From the supplement of paper PMC10567573
